# Results as given in PMC3558616 (Molecular microbiology, 2012).
# B1: HvJAMM2 (Haloferax volcanii JAMM/MPN+ domain protein, HVO_1016), His6-tagged (natural protein, UniProt D4GVJ3 1-161, looked up)
# chain: MRLFRSREVVGIAADALDFALEASAETHPNEYMGLLRGEEARRVGVDRDGYVVTDVLIIPGTVSDPYSATVRNDLVPNDFHAVGSIHSHPNGVLRPSDADLDTFGSGRVHIIIGSPYGPDDWEAFDQSGEVRDLDVLDADLSDPESFFDFTQDDIDAELDR
# Target: the molecule itself
# Experiment: SEC
protein,measurement,value
B1,stoichiometry N,2
